# Assay results: article PMC6222095 (2018)
# B1: complement factor H, double homozygous His-402/Val-62 allotype (natural protein)
# chain: EDCNELPPRRNTEILTGSWSDQTYPEGTQAIYKCRPGYRSLGNVIMVCRKGEWVALNPLRKCQKRPCGHPGDTPFGTFTLTGGNVFEYGVKAVYTCNEGYQLLGEINYRECDTDGWTNDIPICEVVKCLPVTAPENGKIVSSAMEPDREYHFGQAVRFVCNSGYKIEGDEEMHCSDDGFWSKEKPKCVEISCKSPDVINGSPISQKIIYKENERFQYKCNMGYEYSERGDAVCTESGWRPLPSCEEKSCDNPYIPNGDYSPLRIKHRTGDEITYQCRNGFYPATRGNTAKCTSTGWIPAPRCTLKPCDYPDIKHGGLYHENMRRPYFPVAVGKYYSYYCDEHFETPSGSYWDHIHCTQDGWSPAVPCLRKCYFPYLENGYNQNHGRKFVQGKSIDVACHPGYALPKAQTTVTCMENGWSPTPRCIRVKTCSKSSIDIENGFISESQYTYALKEKAKYQCKLGYVTADGETSGSITCGKDGWSAQPTCIKSCDIPVFMNARTKNDFTWFKLNDTLDYECHDGYESNTGSTTGSIVCGYNGWSDLPICYERECELPKIDVHLVPDRKKDQYKVGEVLKFSCKPGFTIVGPNSVQCYHFGLSPDLPICKEQVQSCGPPPELLNGNVKEKTKEEYGHSEVVEYYCNPRFLMKGPNKIQCVDGEWTTLPVCIVEESTCGDIPELEHGWAQLSSPPYYYGDSVEFNCSESFTMIGHRSITCIHGVWTQLPQCVAIDKLKKCKSSNLIILEEHLKNKKEFDHNSNIRYRCRGKEGWIHTVCINGRWDPEVNCSMAQIQLCPPPPQIPNSHNMTTTLNYRDGEKVSVLCQENYLIQEGEEITCKDGRWQSIPLCVEKIPCSQPPQIEHGTINSSRSSQESYAHGTKLSYTCEGGFRISEENETTCYMGKWSSPPQCEGLPCKSPPEISHGVVAHMSDSYQYGEEVTYKCFEGFGIDGPAIAKCLGEKWSHPPSCIKTDCLSLPSFENAIPMGEKKDVYKAGEQVTYTCATYYKMDGASNVTCINSRWTGRPTCRDTSCVNPPTVQNAYIVSRQMSKYPSGERVRYQCRSPYEMFGDEEVMCLNGNWTEPPQCKDSTGKCGPPPPIDNGDITSFPLSVYAPASSVEYQCQNLYQLEGNKRITCRNGQWSEPPKCLHPCVISREIMENYNIALRWTAKQKLYSRTGESVEFVCKRGYRLSSRSHTLRTTCWDGKLEYPTCAKR
# modifications: eight biantennary disialylated N-glycans; sites as printed: Asn-511, Asn-700, Asn-784, Asn-804, Asn-864, Asn-892, Asn-1011, Asn-1077
# Legend:
# [1] = molecular target: B1; test: SPR
# SPR = molecular target: the molecule itself; test: SPR
Kd [1],Binder,Kd (SPR)
> 40 µM,"complement factor H, homozygous Tyr-402/Val-62 allotype (natural protein, eight biantennary disialylated N-glycans; sites as printed: Asn-511, Asn-700, Asn-784, Asn-804, Asn-864, Asn-892, Asn-1011, Asn-1077) EDCNELPPRRNTEILTGSWSDQTYPEGTQAIYKCRPGYRSLGNVIMVCRKGEWVALNPLRKCQKRPCGHPGDTPFGTFTLTGGNVFEYGVKAVYTCNEGYQLLGEINYRECDTDGWTNDIPICEVVKCLPVTAPENGKIVSSAMEPDREYHFGQAVRFVCNSGYKIEGDEEMHCSDDGFWSKEKPKCVEISCKSPDVINGSPISQKIIYKENERFQYKCNMGYEYSERGDAVCTESGWRPLPSCEEKSCDNPYIPNGDYSPLRIKHRTGDEITYQCRNGFYPATRGNTAKCTSTGWIPAPRCTLKPCDYPDIKHGGLYHENMRRPYFPVAVGKYYSYYCDEHFETPSGSYWDHIHCTQDGWSPAVPCLRKCYFPYLENGYNQNYGRKFVQGKSIDVACHPGYALPKAQTTVTCMENGWSPTPRCIRVKTCSKSSIDIENGFISESQYTYALKEKAKYQCKLGYVTADGETSGSITCGKDGWSAQPTCIKSCDIPVFMNARTKNDFTWFKLNDTLDYECHDGYESNTGSTTGSIVCGYNGWSDLPICYERECELPKIDVHLVPDRKKDQYKVGEVLKFSCKPGFTIVGPNSVQCYHFGLSPDLPICKEQVQSCGPPPELLNGNVKEKTKEEYGHSEVVEYYCNPRFLMKGPNKIQCVDGEWTTLPVCIVEESTCGDIPELEHGWAQLSSPPYYYGDSVEFNCSESFTMIGHRSITCIHGVWTQLPQCVAIDKLKKCKSSNLIILEEHLKNKKEFDHNSNIRYRCRGKEGWIHTVCINGRWDPEVNCSMAQIQLCPPPPQIPNSHNMTTTLNYRDGEKVSVLCQENYLIQEGEEITCKDGRWQSIPLCVEKIPCSQPPQIEHGTINSSRSSQESYAHGTKLSYTCEGGFRISEENETTCYMGKWSSPPQCEGLPCKSPPEISHGVVAHMSDSYQYGEEVTYKCFEGFGIDGPAIAKCLGEKWSHPPSCIKTDCLSLPSFENAIPMGEKKDVYKAGEQVTYTCATYYKMDGASNVTCINSRWTGRPTCRDTSCVNPPTVQNAYIVSRQMSKYPSGERVRYQCRSPYEMFGDEEVMCLNGNWTEPPQCKDSTGKCGPPPPIDNGDITSFPLSVYAPASSVEYQCQNLYQLEGNKRITCRNGQWSEPPKCLHPCVISREIMENYNIALRWTAKQKLYSRTGESVEFVCKRGYRLSSRSHTLRTTCWDGKLEYPTCAKR",
,B1,> 40 µM
